Data from article PMC10641069, “Intra- and inter-molecular regulation by intrinsically-disordered regions governs PUF protein RNA binding” (Nature Communications, 2023).
“Also recorded” adds a separate entry of the source. Read-outs that look alike come from different tables or passages of the source.

Tests used:
FBF-2 RBD = target: T1, FBF-2 RBD (Caenorhabditis elegans, UniProt Q09312); details: reported previously, cited from earlier work
T1 construct: The FBF-2 RBD protein (residue 164-575) was purified as described previously; His6-SUMO (N, cleaved yes); made in house; host or cells: E. coli BL21-CodonPlus (DE3)-RIL (host inferred: b50 says the procedure was otherwise the same as for RBD + CT)
T1 sequence (Q09312 whole entry, looked up): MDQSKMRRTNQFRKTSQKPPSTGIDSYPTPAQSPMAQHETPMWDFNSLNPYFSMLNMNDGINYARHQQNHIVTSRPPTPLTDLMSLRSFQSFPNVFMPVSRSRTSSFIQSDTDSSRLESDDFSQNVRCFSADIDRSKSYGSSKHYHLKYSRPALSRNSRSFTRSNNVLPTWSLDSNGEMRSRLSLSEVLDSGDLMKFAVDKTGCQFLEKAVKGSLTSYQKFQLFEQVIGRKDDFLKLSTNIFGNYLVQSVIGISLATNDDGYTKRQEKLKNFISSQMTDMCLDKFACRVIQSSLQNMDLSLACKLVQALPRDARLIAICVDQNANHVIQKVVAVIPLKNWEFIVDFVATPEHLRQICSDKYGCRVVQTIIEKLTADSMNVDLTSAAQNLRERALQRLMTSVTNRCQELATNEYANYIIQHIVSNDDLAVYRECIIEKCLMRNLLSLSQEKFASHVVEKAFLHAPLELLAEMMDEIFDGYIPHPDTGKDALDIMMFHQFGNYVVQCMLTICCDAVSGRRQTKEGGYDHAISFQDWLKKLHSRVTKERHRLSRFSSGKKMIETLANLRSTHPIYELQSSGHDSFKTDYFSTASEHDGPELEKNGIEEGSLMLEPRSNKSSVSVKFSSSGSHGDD
Source text: Given that the core residues of three distinct PIMs—FBF-2 CT, LST-1 A, and LST-1 B—all bind to the same site of FBF-2, we hypothesized that the intramolecular FBF-2 CT binding could compete with LST-1 A and LST-1 B binding. To assess that idea, we investigated how the CT affects the protein interaction affinities of the FBF-2 RBD to LST-1 A and LST-1 B, using isothermal titration calorimetry (ITC, Supplementary Table 3). No RNA was included in these experiments. We first measured the binding affinity of an isolated CT peptide and the FBF-2 RBD (no CT), by titrating the peptide, FBF-2^601–632, ... || Fig. 2 The FBF-2 CT competes with partner proteins for binding to the RBD. Representative isothermal titration calorimetry thermograms (top, differential power [DP] vs time) and corresponding titration curve-fitting graphs (bottom) are shown for interaction between a FBF-2 RBD and FBF-2 CT, c FBF-2 RBD + CT and LST-1 A, d FBF-2 RBD + CT and LST-1 B, e FBF-2 RBD and FBF-2 CT L610A, f FBF-2 RBD + CT L610A and LST-1 A, and g FBF-2 RBD + CT L610A and LST-1 B. Data points on the curve-fitting graphs are shown as open circles. b Previously reported mean Kd from two independent replicates with simila ... || We next compared the protein interaction affinities of LST-1 A or LST-1 B with either FBF-2 RBD + CT or RBD alone (Fig. 2c–g, Supplementary Table 3). For these experiments, we titrated the LST-1 peptide into an ITC cell containing either RBD + CT or RBD.

gld-1 FBEa RNA = details: LST-1 peptide with FBF-2 RBD (no CT); cited from earlier work
Source text: LST-1 is expressed in GSCs in response to signaling from the stem cell niche. The LST-1 protein is largely unstructured (Fig. 1b), including an N-terminal region that is sufficient for self-renewal of GSCs[22]. This LST-1 IDR region harbors two PUF Interacting Motifs (PIMs), LST-1 A and LST-1 B, that interact with FBF-2, each with a KxxL sequence[17],[22]. Crystal structures of FBF-2 bound to LST-1 A or B identify a seven-residue core region, including the KxxL sequence, that binds to FBF-2 with similar peptide backbone structure[17],[18]. The two LST-1 PIMs are biologically redundant for ... || If the FBF-2 CT reduces RNA-binding affinity (Fig. 3b) and competes with LST-1 for binding (Fig. 2c, d), why then does FBF-2 depend on LST-1 to repress RNAs in nematodes? To address this question, we explored RNA-binding affinities of FBF-2 RBD + CT in the presence of either LST-1 A or LST-1 B (Fig. 6; Supplementary Table 3). In contrast to results with FBF-2 RBD alone[17],[18], both LST-1 A and LST-1 B increased the RNA-binding affinity of FBF-2 RBD + CT.

FBF-2 RBD+CT Y479A = target: T2, FBF-2 RBD+CT Y479A (Caenorhabditis elegans, UniProt Q09312 164-632, Y479A); assay: EMSA; no LST-1; EMSA: FBF-2 in 20 mM HEPES pH 7.4, 150 mM NaCl, 0.5 mM TCEP mixed 1:1 with 5 nM final RNA in 10 mM HEPES pH 7.4, 0.01% Tween 20, 0.1 mg/ml BSA, 0.1 mg/ml yeast; details: protein: recombinant; tags: none (His6-SUMO removed with Ulp1); label: 3'-Cy5
T2 sequence: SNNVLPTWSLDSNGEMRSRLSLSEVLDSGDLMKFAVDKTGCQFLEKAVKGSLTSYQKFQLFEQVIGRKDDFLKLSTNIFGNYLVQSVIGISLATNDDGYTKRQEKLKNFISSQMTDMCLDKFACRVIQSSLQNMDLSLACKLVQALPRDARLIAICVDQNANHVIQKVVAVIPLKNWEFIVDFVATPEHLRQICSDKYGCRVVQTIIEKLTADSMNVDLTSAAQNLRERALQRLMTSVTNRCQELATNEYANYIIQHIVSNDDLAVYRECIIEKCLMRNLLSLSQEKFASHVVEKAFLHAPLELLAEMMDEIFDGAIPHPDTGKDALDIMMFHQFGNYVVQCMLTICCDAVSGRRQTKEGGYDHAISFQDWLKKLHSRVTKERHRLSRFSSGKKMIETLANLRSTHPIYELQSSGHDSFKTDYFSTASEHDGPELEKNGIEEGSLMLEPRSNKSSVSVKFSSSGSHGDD

Molecule | -T∆S (FBF-2 RBD; replicate 1) [kcal/mol] | ∆G (FBF-2 RBD; replicate 1) [kcal/mol] | ∆H (FBF-2 RBD; replicate 1) [kcal/mol] | -T∆S (FBF-2 RBD; replicate 2) [kcal/mol] | ∆G (FBF-2 RBD; replicate 2) [kcal/mol] | ∆H (FBF-2 RBD; replicate 2) [kcal/mol] | effect on RNA-binding affinity of FBF-2 RBD (gld-1 FBEa RNA) | Kd (FBF-2 RBD+CT Y479A) [nM]
LST-1 B: LST-1 B peptide, residues 67–98, expressed in E. coli (SSSPQQRSGLRSQKLHLTYIEKNKRVRAMIPQ; left off: His6-SUMO, N-terminal, cleaved) | 7.7 | -9.85 | -17.5 | 7.17 | -9.87 | -17 | decreased the RNA-binding affinity; also recorded: decreases RNA-binding affinity | 
AUCAUGUGCCAUAC (ssRNA) [gld-1 FBEa RNA (EMSA)] |  |  |  |  |  |  |  | 62 ± 14
